Assay results: publication PMC3781594 (Circulation, 2013)
Read-outs that look alike come from different tables or passages of the source.

B1: biotinylated MIF (ligand, UniProt P14174 1-115, looked up)
chain: MPMFIVNTNVPRASVPDGFLSELTQQLAQATGKPPQYIAVHVVPDQLMAFGGSSEPCALCSLHSIGKIGGAQNRSYSKLLCGLLAERLRISPDRVYINYYDMNAANVGWNNSTFA
modifications: biotin (site not stated)
B2: human macrophage migration inhibitory factor (MIF) (ligand, UniProt P14174 1-115, looked up)
chain: MPMFIVNTNVPRASVPDGFLSELTQQLAQATGKPPQYIAVHVVPDQLMAFGGSSEPCALCSLHSIGKIGGAQNRSYSKLLCGLLAERLRISPDRVYINYYDMNAANVGWNNSTFA

Columns and labels:
[1] = molecular target: T1, recombinant CD74 ectodomain (sCD74 = CD74 73-232) (UniProt P04233-2 73-232); assay: ELISA
T1 sequence (looked up): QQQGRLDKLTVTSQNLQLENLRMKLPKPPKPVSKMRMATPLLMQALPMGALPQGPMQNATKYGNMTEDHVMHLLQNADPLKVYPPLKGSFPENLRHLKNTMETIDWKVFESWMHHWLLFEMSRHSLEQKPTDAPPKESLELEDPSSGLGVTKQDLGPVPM

[2] = molecular target: T1, recombinant CD74 ectodomain (sCD74 = …); assay: SPR
[3] = molecular target: T1, recombinant CD74 ectodomain (sCD74 = …); assay: SPR; remark: listed apart in the source

Row | Binder | fold increase of MIF bound with 500 nM MIF20 against MIF without agonist [1] | Kd [2] | Kd [3]
1 | B1 | ~2.5 fold | – | –
2 | B2 | – | 6.06 nM | 2.25 nM
